Results: patent publication US20030049246A1 (published 2003)

Molecular target: T1, Gli3C′ΔXhoI (Myc-tagged C-terminal deleted XhoI Gli 3 truncate) (human, UniProt P10071 1-547)
T1 construct: also called Gli3C'XhoI
T1 sequence: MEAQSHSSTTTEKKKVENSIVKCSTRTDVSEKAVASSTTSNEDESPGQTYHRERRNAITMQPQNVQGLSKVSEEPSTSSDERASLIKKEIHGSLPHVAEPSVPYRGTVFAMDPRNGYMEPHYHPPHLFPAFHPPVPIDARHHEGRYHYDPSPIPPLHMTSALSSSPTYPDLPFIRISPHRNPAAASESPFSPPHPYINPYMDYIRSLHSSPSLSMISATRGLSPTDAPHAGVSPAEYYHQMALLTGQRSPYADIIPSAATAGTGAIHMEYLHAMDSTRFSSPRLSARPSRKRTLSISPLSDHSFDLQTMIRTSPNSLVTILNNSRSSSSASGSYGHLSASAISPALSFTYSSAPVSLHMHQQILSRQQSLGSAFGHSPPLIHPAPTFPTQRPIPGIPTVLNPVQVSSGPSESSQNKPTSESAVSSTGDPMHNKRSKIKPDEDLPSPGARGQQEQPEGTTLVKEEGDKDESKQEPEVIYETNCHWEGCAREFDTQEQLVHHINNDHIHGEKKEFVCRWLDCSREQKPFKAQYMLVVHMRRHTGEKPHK
Assay: co-immunoprecipitation (anti-Flag IP, anti-Myc blot), transfected cells
Procedure: Immunoprecipitation and immunoblotting: The assay was performed as previously described ( Liu et al, 1997, Genes Dev. 11:3157-3167). RIB/L17 or COS1 cells were cotransfected with Myc-tagged full-length or deletion derivatives of Gli3 or Gli1 along with a Flag-tagged Smad construct by the DEAE-dextran method. BMP or TGFP stimulation was by cotransfection of an activated BMP or TGFβ receptor and treatment with BMP (2 nM) or TGFβ (500 pM) for 1 hour. Cells were lysed in TNE buffer (10 mM Tris (pH7.8), 150 mM NaCl, 1 mM EDTA, 1% NP40) in the presence of protease inhibitors. Immunoprecipitation was performed by incubation with the M2 anti-Flag antibody (Eastman Kodak) for 1 hour. Immunoprecipitates were separated in an 8% SDS-PAGE and transferred to a PVDF membrane. Inmmunoblotting was carried out by using the 9E10 anti-Myc antibody (ascites), followed by incubation with HRP-conjugated goat anti-mouse antibodies and detected by chemiluminescence (Amersham).

B1: Flag-Smad1 (other, UniProt Q15797 1-465, looked up)
chain: MNVTSLFSFTSPAVKRLLGWKQGDEEEKWAEKAVDALVKKLKKKKGAMEELEKALSCPGQPSNCVTIPRSLDGRLQVSHRKGLPHVIYCRVWRWPDLQSHHELKPLECCEFPFGSKQKEVCINPYHYKRVESPVLPPVLVPRHSEYNPQHSLLAQFRNLGQNEPHMPLNATFPDSFQQPNSHPFPHSPNSSYPNSPGSSSSTYPHSPTSSDPGSPFQMPADTPPPAYLPPEDPMTQDGSQPMDTNMMAPPLPSEINRGDVQAVAYEEPKHWCSIVYYELNNRVGEAFHASSTSVLVDGFTDPSNNKNRFCLGLLSNVNRNSTIENTRRHIGKGVHLYYVGGEVYAECLSDSSIFVQSRNCNYHHGFHPTTVCKIPSGCSLKIFNNQEFAQLLAQSVNHGFETVYELTKMCTIRMSFVKGWGAEYHRQDVTSTPCWIEIHLHGPLQWLDKVLTQMGSPHNPISSVS
notes: not shown: Flag tag
binding result: no binding
